The values below come from patent US20230212266A1 (FRED HUTCHINSON CANCER CENTER, published 2023).

In experiment [1] the target is T1, SARS-CoV-2 receptor binding domain (RBD) (SARS-CoV-2, UniProt P0DTC2 319-591). The experiment in a line: BLI, mAb on anti-human Fc probe, antigen in solution.
Experiment [2] addresses T1, SARS-CoV-2 receptor binding domain (RBD). The description is as above. The source holds these as a separate data set.
Experiment [3] shares this target. The experiment in a line: BLI: mAb on anti-human Fc probe, dipped in the antigen. (BLI is a label-free optical method that tracks binding on a fibre tip over time.)
Experiment [4] has the same target. The experiment is described as above. The source holds these as a separate data set.
Experiment [5] has the same target. The experiment is described as above. The source holds these as a separate data set.
Experiment [6] has the same target. The experiment in a line: BLI, mAb on anti-human Fc probe, antigen in solution. The source holds these as a separate data set.
For experiment [7] the target is unchanged. The experiment is described as above. This is another data set of the same source.
Experiment [8] shares this target. The description is as above. The source holds these as a separate data set.
The target is the same in experiment [9]. The experiment in a line: BLI: mAb on anti-human Fc probe, dipped in the antigen. The source holds these as a separate data set.
The target is the same in experiment [10]. The experiment is described as above. This is another data set of the same source.
Experiment [11] has the same target. The description is as above. This is another data set of the same source.
The target is the same in experiment [12]. Briefly: BLI, mAb on anti-human Fc probe, antigen in solution. This is another data set of the same source.
The target is the same in experiment [13]. Briefly: BLI: mAb on anti-human Fc probe, dipped in the antigen. The source holds these as a separate data set.
The target is the same in experiment [14]. Briefly: BLI, mAb on anti-human Fc probe, antigen in solution. The source holds these as a separate data set.
Experiment [15] has the same target. Briefly: BLI: mAb on anti-human Fc probe, dipped in the antigen. The source holds these as a separate data set.
Experiment [16] has the same target. The experiment is described as above. This is another data set of the same source.
The target is the same in experiment [17]. Described as above. The source holds these as a separate data set.
Experiment [18] has the same target. Briefly: BLI, mAb on anti-human Fc probe, antigen in solution. The source holds these as a separate data set.

B1: CV17 (antibody, V domains shown)
VH: not shown
VL: QSALTQPASVSGSPGQSITISCTGTSSDVGSYNLVSWYQQHPGKAPKLMIYEGSKRPSGVSNRFSGSKSGNTASLTISGLQAEDEADYYCCSYAGSSTYVFGTGTKVTVL
notes: expressed as IgG
For the molecule B1, the binding result in experiment [1] was “no binding”.

B2: CV22 (antibody, V domains shown)
VH: EVQLVESGGGLVKPGGSLRLSCAASGFTFSSYSMNWVRQAPGKGLEWVSSISSSSSYIYYADSVKGRFTISRDNAKNSLYLQMNSLRAEDTAVYYCARDRESYDILTGYSMEGCFDYWGQGTLVTVSS
VL: QLVLTQSPSASASLGASVKLTCTLSSGHSSYAIAWHQQQPEKGPRYLMKLNSDGSHSKGDGIPDRFSGSSSGAERYLTISSLQSEDEADYYCQTWGTGIRVFGGGTKLTVL
notes: expressed as IgG
Regarding B2, in experiment [2], the binding result is recorded as “no binding”.

B3: CV2-63 (antibody, V domains shown)
VH: QVQLVESGGGVVQPGRSLRLSCAASGFTFSSYAMHWVRQAPGKGLEWVAVISYDGDNKYYADSVKGRFTISRDNSKNTLYLQMNSLRAEDTAVYYCARDPTAVTGPFDYWGQGTLVTVSS
VL: SYELTQPLSVSVALGQTARITCGGNNIGSKNVHWYQQKPGQAPVLVIYRDSNRPSGIPERFSGSNSGNTATLTISRAQAGDEADYFCQVWDSSTVVFGGGTKLTVL
With B3, the binding result in [3] was “no binding”.

B4: CV2-64 (antibody, V domains shown)
VH: QLQLQESGPGLVKPSETLSLTCTVSGGSISSSSYYWGWIRQPPGKGLEWIGSIYYSGSTYYNPSLKSRVTISVDTSKNQFSLKLSSVTAADTAVYYCARLSGIFGVVIIPGFFDYWGQGTLVTVSS
VL: not shown
For the molecule B4, the binding result in experiment [4] is “no binding”.

B5: CV2-73 (antibody, V domains shown)
VH: QVQLQESGPGLVKPSETLSLTCTVSGGSVSSGSYYWSWIRQPPGKGLEWIGYIYYSGSTNYKYSLKSRVTISVDTSKNQFSLKLSSVTAADTAVYYCAREKGGTEWEFNDAFDIWGQGTMVTVSS
VL: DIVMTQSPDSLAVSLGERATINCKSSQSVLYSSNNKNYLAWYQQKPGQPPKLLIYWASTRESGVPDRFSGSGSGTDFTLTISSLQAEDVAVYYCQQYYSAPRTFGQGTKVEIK
Consider B5, for which the binding result in experiment [5] is reported as “no binding”.

B6: CV18 (antibody, V domains shown)
VH: QVQLVQSGAEVKKPGASVKVSCKVSGYTLTELSMHWVRQAPGKGLEWMGGFDPEDGETIYAQKFQGRVTMTEDTSTDTAYMELSSLRSEDTAVYYCATTSPIVGAITWFDPWGQGTLVTVSS
VL: QSVLTQPPSVSAAPGQKVTISCSGSSSNIGNNYVSWYQQLPGTAPKLLIYDNNKRPSGIPDRFSGSKSGTSATLGITGLQTGDEADYYCGTWDSSLSAGPVFGGGTKLTVL
notes: expressed as IgG
With B6, the binding result in [6] is given as “no binding”.

B7: CV23 (antibody, V domains shown)
VH: QVQLVQSGAEVKKPGASVKVSCKASGYTFTSYAMHWVRQAPGQRLEWMGWINAGNGNTKYSQKFQGRVTITRDTSASTAYMELSSLRSEDTAVYYCARVWGYCSGGSCYVDAFDIWGQGTMVTVSS
VL: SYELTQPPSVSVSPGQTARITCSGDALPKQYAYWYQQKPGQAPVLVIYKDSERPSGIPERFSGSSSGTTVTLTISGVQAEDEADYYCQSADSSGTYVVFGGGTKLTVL
notes: expressed as IgG
B7: the binding result in [7] is on record as “no binding”.

B8: CV21 (antibody, V domains shown)
VH: not shown
VL: EIVLTQSPATLSLSPGERATLSCRASQSVSSYLAWYQQKPGQAPRLLIYDASNRATGIPARFSGSGSGTDFTLTISSLEPEDFAVYYCQQRSNWPLTFGGGTKVEIK
notes: expressed as IgG
In the case of B8, the binding result in experiment [8] was “no binding”.

B9: CV2-70 (antibody, V domains shown)
VH: QVQLVQSGAEVKKPGSSVKVSCKASGGTFSSYAITWVRQAPGQGLEWMGGIIPIFGTANYAQKFQGRLTITADDSTSTAYMELSSLKSEDTAVYYCARFRAYDSSGYGPDYWGQGTLVTVSS
VL: EIVLTQSPATLSLSPGERATLSCRASQSVSSYLAWYQQKPGQAPRLLIYDASNRATGIPARFSGSGSGTDFTLTISSLEPEDFAVYYCQQRSNWPPSITFGQGTRLEIK
As to B9, in experiment [9], the binding result is “no binding”.

B10: CV2-67 (antibody, V domains shown)
VH: QVQLQESGPGLVKPSETLSLTCTVSGGSISSYYWSWIRQPPGKGLEWIGYIYYSGSTNYNPSLKSRVTISVDTSKNQFSLKLSSVTAADTAVYYCAGTYYDFWSGSTNYYGMDVWGQGTTVTVSS
VL: not shown
Regarding B10, in experiment [10], the binding result is on record as “no binding”.

B11: CV2-69 (antibody, V domains shown)
VH: EVQLLESGGGLVQPGGSLKLSCAASGFTFNSYAMTWVRQAPGKGLEWLSTISGSGGRTYYADSVKGRFAISRDNSKNTVFLQMSTLRAEDTAVYFCARDFYGLESFYPGIDSWGQGTLVTVSS
VL: SYELTQPSSVSVFPGQTARITCSGDVLEKKYARWFQQKPGQAPLLVIYKDSERPSGIPERFFGSSSGTTVTLTISGAQVEDEADYYCYSAADNNRGVFGGGTKLTVL
For the molecule B11, the binding result in [11] is reported as “no binding”.

B12: CV15 (antibody, V domains shown)
VH: EVQLVESGGGLVQPGGSLRLSCAASGFTFSSYWMSWVRQAPGKGLEWVANIKQDGSEKYYVDSVKGRFTISRDNAKNSLYLQMNSLRAEDTAVYYCARDFNSYQLLWYYYYGMDVWGQGTTVTVSS
VL: QSALTQPRSVSGSPGQSVTISCTGTSSDVGGYNYVSWYQQHPGKAPKLMIYDVSKRPSGVPDRFSGSKSGNTASLTISGLQAEDEADYYCCSYAGSYTWVFGGGTKLTVL
notes: expressed as IgG
Take B12: in experiment [12], the binding result is listed as “no binding”.

B13: CV2-62 (antibody, V domains shown)
VH: EVQLVESGGGLVQPGGSLRLSCAASGFTFSSYEMNWVRQAPGKGLEWVSYISSSGSTIYYADSVKGRFTISRDNAKNSLYLQMNSLRAEDTAVYYCARVPRPPWDDFWSGYLYYFDYWGQGTLVTVSS
VL: DIQMTQSPSSLSASVGDRVTITCRASQGISNYLAWYQQKPGKVPKLLIYAASTLQSGVPSRFSGSGSGTDFTLTISSLQPEDVATYYCQKYNSAPPGFTFGPGTKVDIK
Regarding B13, the binding result in experiment [13] was “no binding”.

B14: CV25 (antibody, V domains shown)
VH: QVQLQESGPGLVKPSQTLSLTCTVSGGSISSGDYYWSWIRQPPGKGLEWIGYIYYSGSTYYNPSLKSRVTISVDTSKNQFSLKLSSVTAADTAVYYCARDHHYDFWSGYSSYYYYGMDVWGQGTTVTVSS
VL: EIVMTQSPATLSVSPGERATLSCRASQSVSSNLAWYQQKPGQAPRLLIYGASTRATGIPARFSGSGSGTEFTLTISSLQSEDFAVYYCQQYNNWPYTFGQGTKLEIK
With B14, the binding result in experiment [14] was “no binding”.

B15: CV2-72 (antibody, V domains shown)
VH: EVQLVESGGGLVQPGGSLRLSCAASGFTVSTNYMSWVRQAPGKGLEWVSVIYSGGSTYYVDSVKGRFTISRDNSKNTLYLQMNSLRAEDTAVYYCASTNSGSYSHVFDIWGQGTMVTVSS
VL: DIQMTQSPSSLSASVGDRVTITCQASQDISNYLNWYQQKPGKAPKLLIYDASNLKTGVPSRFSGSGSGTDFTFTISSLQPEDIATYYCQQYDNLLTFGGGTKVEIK
For B15, the binding result in experiment [15] is “no binding”.

B16: CV2-60 (antibody, V domains shown)
VH: QVQLVQSGAEVKKPGASVKVSCKASGYNFISYGISWVRQAPGQGLEWMGWISAYNGNTNYAQKLQGRVTMTTDTSTSTAYMELRSLRSDDTAVYYCARVRIFGVVIIVDTAMVLDYWGQGTLVTVSS
VL: QSVLTQPPSVSAAPGQKVTISCSGSSSNIGNNYVSWYQQLPGTAPKLLIYENNKRPSGIPDRFSGSKSGTSATLGITGLQTGDEADYYCGTWDSSLSAGVFGGGTKLTVL
Consider B16, for which the binding result in experiment [16] is recorded as “no binding”.

B17: CV2-74 (antibody, V domains shown)
VH: EVQLVQSGAEVKKPGESLRISCKGSGYSFTSYWISWVRQMPGKGLEWMGRIDPSDSYTNYSPSFQGHVTISADKSISTASLQWSSLKASDTAMYYCARQKRDGTTWAFDYWGQGTLVTASS
VL: not shown
Turning to B17, in experiment [17], the binding result is “no binding”.

B18: CV2 (antibody, V domains shown)
VH: QVQLVESGGGVVQPGRSLRLSCAASGFTFSSYAMHWVRQAPGKGLEWVAVISYDGSNKYYADSVKGRFTISRDNSKNTLYLQMNSLRAEDTAVYYCARVRGSYYLFDYWGQGTLVTVSS
VL: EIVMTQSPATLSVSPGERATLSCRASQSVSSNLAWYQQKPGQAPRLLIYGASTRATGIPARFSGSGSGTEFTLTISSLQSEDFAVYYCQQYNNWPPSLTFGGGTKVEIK
notes: expressed as IgG
In the case of B18, the binding result in [18] is reported as “no binding”.
